Results taken from the supplement of paper PMC12667976.
± gives the standard error.

B1: library; numbered along this chain (parent)
chain: MATDAALRRLLRLHRTEIAVAVDSAFPLLHALADHDVVPEDKFQETLHLKEKEGCPQAFHALLSWLLTQDSTAILDFWRVLFKDYNLERYGRLQPILDSFPKDVDLSQPRKGRKPPAVPKALVPPPRLPTKRKASEEARAAAPAALTPRGTASPGSQLKAKPPKKPESSAEQQRLPLGNGIQTMSASVQRAVAMSSGDVPGARGAVEGILIQQVFESGGSKKCIQVGGEFYTPSKFEDSGSGKNKARSSSGPKPLVRAKGAQGAAPGGGEARLGQQGSVPAPLALPSDPQLHQKNEDECAVCRDGGELICCDGCPRAFHLACLSPPLREIPSGTWRCSSCLQATVQEVQPRAEEPRPQEPPVETPLPPGLRSAGEEVRGPPGEPLAGMDTTLVYKHLPAPPSAAPLPGLDSSALHPLLCVGPEGQQNLAPGARCGVCGDGTDVLRCTHCAAAFHWRCHFPAGTSRPGTGLRCRSCSGDVTPAPVEGVLAPSPARLAPGPAKDDTASHEPALHRDDLESLLSEHTFDGILQWAIQSMARPAAPFPS

Variants of: B1
Test: AIRE transcriptional activation functional score (insulin promoter-GFP; nonsense median 0, synonymous median 1) (normalised score); higher = higher AIRE activity (more reporter activation)
Details: with insulin promoter-GFP reporter in HEK293
Procedure, shortened: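 Codon-optimized AIRE NNN-codon libraries (three regions) were integrated by Bxb1 recombinase into Flp-In T-REx HEK293 landing-pad cells carrying an insulin core promoter-GFP reporter. Integrants (mCherry+, BFP−) sorted at day 7 were expanded 7 days; top 10% GFP and unselected integrant populations were tile-sequenced. Functional score is select versus non-select variant enrichment, wild-type subtracted. Variants needed 10 counts per million in non-select; scores were rescaled to nonsense median 0 and synonymous median 1, then averaged over biological replicates.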

AIRE transcriptional activation functional score of substitutions, site by site:
C322: A 1.16 ± 0.17
G313: N 0.241 ± 0.062, L 1.28 ± 0.1, A 0.829 ± 0.24, T 0.676 ± 0.23, C 1.51 ± 0.28, V 1.22 ± 0.2, Y 1.16 ± 0.26, P 0.756 ± 0.37, F 1.13 ± 0.36, D 1.39 ± 0.29, S 0.974 ± 0.32, H 1.5 ± 0.058, E 0.654 ± 0.1, M -0.04 ± 0.12, Q 1 ± 0.27, R 0.762 ± 0.31, W 1.27 ± 0.052, K 0.717 ± 0.071, I 0.979 ± 0.39
E307: T 1.03 ± 0.16, Y 0.242 ± 0.28, F 0.273 ± 0.19, S 1.2 ± 0.34, A 0.982 ± 0.31, W 0.599 ± 0.092, N 1.41 ± 0.1, M 0.227 ± 0.14, V 1.2 ± 0.19, Q 1 ± 0.19, G 1.18 ± 0.31, D 0.973 ± 0.21, H 1.11 ± 0.061, C 0.732 ± 0.45, K 1.16 ± 0.32, P 0.172 ± 0.45, L 0.372 ± 0.31, I 0.714 ± 0.45, R 1.28 ± 0.21
G305: I -0.493 ± 0.32, V 1.07 ± 0.25, W 0.779 ± 0.044, L 1.31 ± 0.4, M 0.666 ± 0.1, P 0.937 ± 0.17, H 0.264 ± 0.093, Q 0.0432 ± 0.44, T 1.35 ± 0.21, S 0.9 ± 0.29, R 0.945 ± 0.35, N 1.16 ± 0.32, K 1.08 ± 0.11, Y 1.05 ± 0.14
G306: A 0.976 ± 0.23, S 0.862 ± 0.09, E 1.14 ± 0.19, L 0.492 ± 0.2, Y 0.924 ± 0.035, N 1.18 ± 0.17, P 0.361 ± 0.21, K 0.811 ± 0.29, H 1.11 ± 0.041, I 0.377 ± 0.19, Q 1.14 ± 0.16, V 0.712 ± 0.12, F 0.459 ± 0.082, R 0.689 ± 0.18, M 0.451 ± 0.042, T 1.15 ± 0.14, D 0.954 ± 0.19, W 0.744 ± 0.018, C 0.922 ± 0.068
D312: K 0.281 ± 0.1, G 0.92 ± 0.28, Q 1.17 ± 0.16, I 0.684 ± 0.33, F 0.823 ± 0.11, S 0.764 ± 0.21, W 0.939 ± 0.08, E 0.977 ± 0.12, H 1 ± 0.13, M 0.226 ± 0.14, N 0.702 ± 0.15, Y 0.942 ± 0.18, C 1.09 ± 0.21, L 0.872 ± 0.38, V 0.485 ± 0.17, T 0.953 ± 0.33, P 0.626 ± 0.25, A 1.19 ± 0.17, R 0.976 ± 0.29
H319: R 1.03 ± 0.17, Y 0.961 ± 0.06, I 0.263 ± 0.18, E 1.39 ± 0.026, F 0.514 ± 0.2, G 1.28 ± 0.13, D 1.24 ± 0.2, P 1.4 ± 0.12, C 1.43 ± 0.15, Q 1.44 ± 0.099, V 0.662 ± 0.14, W 0.996 ± 0.069, N 1.26 ± 0.094, S 1.31 ± 0.088, L 0.424 ± 0.099, K 1.15 ± 0.065, M 0.921 ± 0.02, T 1.38 ± 0.14, A 1.16 ± 0.14
C314: P 1.1 ± 0.25, Y 0.725 ± 0.11, K 1 ± 0.12, T 1.14 ± 0.34, M 1.12 ± 0.02, L 0.847 ± 0.12, W 0.709 ± 0.011, Q 0.418 ± 0.13, S 1.07 ± 0.24, H 0.752 ± 0.035, I 1.08 ± 0.13, N 1.03 ± 0.054, F 0.96 ± 0.07, E 0.893 ± 0.12, G 0.862 ± 0.088, R 0.842 ± 0.34, D 0.933 ± 0.061, A 0.983 ± 0.3, V 1.13 ± 0.15
C311: P 1.34 ± 0.12, A 1.11 ± 0.33, T 0.998 ± 0.14, I 0.604 ± 0.2, Q 0.783 ± 0.088, H 1.01 ± 0.45, L 0.839 ± 0.16, S 1.04 ± 0.16, G 0.921 ± 0.24, D 0.772 ± 0.27, F 0.878 ± 0.1, Y 0.792 ± 0.094, W 0.678 ± 0.023, E 0.822 ± 0.35, K 1.13 ± 0.052, N 1.47 ± 0.17, R 0.856 ± 0.25, V 0.86 ± 0.2, M 1.62 ± 0.066
C310: R 0.907 ± 0.33, Y 0.993 ± 0.13, L 0.935 ± 0.24, K 0.681 ± 0.21, F 0.908 ± 0.13, T 0.959 ± 0.44, P 0.625 ± 0.32, V 0.912 ± 0.21, E 1.29 ± 0.17, A 0.821 ± 0.23, Q 0.509 ± 0.23, N 0.714 ± 0.11, H 0.624 ± 0.2, W 0.433 ± 0.076, M 0.814 ± 0.11, S 0.768 ± 0.27, I 0.643 ± 0.19, G 0.824 ± 0.27, D 0.991 ± 0.16
